Assay results: US12258584B2, “Methods and systems for converting precursor cells into intestinal tissues through directed differentiation” (Children's Hospital Medical Center, priority 2010, dated 2025)

Columns and labels:
hESCs and iPSCs = experiment: Definitive endoderm induction, SOX17/FOXA2 immunofluorescence; assay type: cell-based, human; conditions: ActivinA 100 ng/ml for 3 days
Procedure: Differentiation of PSCs into Definitive Endoderm (DE). Differentiation into Definitive Endoderm was carried out as previously described. Briefly, a 3 day ActivinA (R&D systems) differentiation protocol was used. Cells were treated with ActivinA (100 ng/ml) for three consecutive days in RPMI 1640 media (Invitrogen) with increasing concentrations of 0%, 0.2%, 2% HyClone defined FBS (dFBS) (Thermo Scientific).
Directing Hindgut Development of PSCs. As a first step to generating intestinal tissue, nodal-related TGFβ molecule activinA was used to promote differentiation of PSCs into DE as previously published. […]
FIGS. 6a and 6b illustrate exemplary embodiments in accordance with the present invention, depicting characterization of DE formation from hESC and iPSC lines by immuno-fluorescence (IF) and Microarray analysis. […] (b) Transcriptional profile of DE induction. hESC-H9 and iPSC lines 3.5, 3.6 and 3.12 were analyzed before and after DE formation (activin differentiation) by Affymetrix DNA microarray analysis.
Tissues were fixed for 1 hour to overnight in 4% paraformaldehyde or 3% glutaraldehyde for transmission electron microscopy (TEM). […] Slides were washed and mounted using Fluormount-G. Confocal images were captured on a Zeiss LSM510 and Z-stacks were analyzed and assembled using AxioVision software. […]

[1] = tested on: H9-HES cells differentiated into definitive endoderm; experiment: Posteriorization of definitive endoderm: foregut (ALB, PDX1) and hindgut (CDX2) marker expression by RT-qPCR and immunofluorescence; assay type: cell-based, human
Procedure: Differentiation of DE in Permissive Media (Differentiation Protocol for FIG. 1). After differentiation into definitive endoderm, cells were incubated in DMEM/F12 plus 2% defined fetal bovine serum (dFBS) with either 0, 50, or 500 ng/ml of FGF4 and/or 0, 50, or 500 ng/ml of Wnt3a (R&D Systems) for 6, 48, or 96 hours. Cultures were then grown in permissive media consisting of DMEM plus 10% fetal bovine serum (FBS) for an additional 7 days.
FIGS. 1a through 1d illustrate exemplary embodiments of the present invention. FGF4 and Wnt3a act synergistically in a temporal and dose-dependent manner to specify stable posterior endoderm fate. ActivinA (100 ng/ml) was used to differentiate H9-HES cells into definitive endoderm (DE). DE was treated with the posteriorizing factors FGF4 (50, 500 ng), Wnt3a (50, 500 ng) or both for 6, 48 or 96 hours. Cells were then cultured in a permissive medium without growth factors for an additional seven days and analyzed for expression of foregut markers (ALB, PDX1) and the hindgut marker (CDX2) by RT-qPCR (a) and immunofluorescence (b-d). FGF4/Wnt-mediated changes in marker expression in (a) is relative to 3-day activin treated DE cultures that were grown for identical lengths of time in the absence of FGF4 or Wnt3a (control). […] Error bars denote standard deviation of triplicates. Significance is shown by; * (p<0.05), ^ (p<0.001), # (p<0.0001).
FIGS. 7a and 7b illustrate exemplary embodiments in accordance with the present invention, depicting time and concentration dependent induction of CDX2 by FGF4 and Wnt3a. (a) FGF4 and Wnt3a up-regulate CDX2 in a concentration dependant manner. 3-day ActivinA treated hESCs were treated for 48 hours with Wnt3a at 50 ng/ml or 500 ng/ml or FGF4 at 50 ng/ml or 500 ng/ml, or increasing concentrations of FGF4+Wnt3a. Cells were analyzed after 48 hours of treatment. […] CDX2 expression was normalized to the internal control beta-tubulin, and is shown relative to a 48 hour control cultured in the absence of growth factors. (b) FGF4 and Wnt3a up-regulate CDX2 in a time dependant manner. 48 hours of exposure to FGF4+Wnt3a was required for the most robust induction of CDX2. All time points shown are set relative to a 0 hour no growth factor control. 500 ng/ml of FGF4, Wnt3a or FGF4+Wnt3a was used for all time points. Note that 24 hour and 48 controls, in the absence of growth factors, show a significant and spontaneous up-regulation of CDX2. Error bars denote standard deviation of triplicates. Significance is shown by; * (p<0.05)
RNA was isolated using the Nucleospin II RNA isolation kit (Clonetech). […] Finally, qPCR was carried out using Quantitect SybrGreen MasterMix (Qiagen) on a Chromo4 Real-Time PCR (BioRad). […]

[2] = tested on: definitive endoderm from human embryonic and induced pluripotent stem cells; experiment: Foregut/hindgut patterning of definitive endoderm by WNT, FGF, BMP and RA signaling (Cdx2, Sox2, HHex, Cerberus expression); assay type: cell-based
Procedure: Following definitive endoderm (DE) induction with activin (100 ng/ml) for 3 days, a 2-4 day treatment was performed with the indicated combination of factors: Wnt3a (500 ng/ml) and Fgf4 (500 ng/ml), Retinoic acid (RA) in a range of 0.2-20 μM the BMP antagonist Noggin (50 ng/ml), the WNT antagonist […] (1-500 ng/ml).
In particular, FIGS. 14B and 14D depict the activation of FGF/WNT/BMP signaling promotes posterior/hindgut fate as indicated by expression of Cdx2. […] Activation of FGF/WNT/BMP signaling represses foregut fate as indicated by expression of Sox2 (FIG. 14C).
The effects of Retinoic Acid in promoting hindgut differentiation in a BMP dependent manner (FIGS. 15A-15D). […] Similar comparison was also performed by immunostaining (FIGS. 15C and 15D). Activation of RA signaling promotes posterior/hindgut fate as indicated by expression of Cdx2 and represses foregut fate as indicated by expression of Sox2. Immunostaining in FIG. 15C is quantified in FIG. 15D using an automated cell counting program.

intestinal organoids = experiment: Intestinal regionalization of hindgut spheroids in 3D matrigel culture with BMP or noggin; assay type: cell-based, human; conditions: added after the hindgut stage to EGF/Rspondid1 containing media; organoids analyzed after 28 days
Procedure: For investigating the impact of BMP signaling on intestinal regionalization after hindgut formation, hindgut spheroids were plated in matrigel and BMP or noggin were added to EGF/Rspondid1 containing media. Intestinal organoids were analyzed after 28 days.

Molecule | cells co-expressing the DE markers SOX17 and FOXA2 (hESCs and iPSCs) | cells co-expressing the DE markers SOX17 and FOXA2 (hESCs and iPSCs; listed as Activin) | competence of DE cultures to form foregut and hindgut lineages ([1]; activinA for only 3-days, then seven days in permissive conditions) | competence of DE cultures to form foregut and hindgut lineages ([1]; prolonged activin treatment for 4-5 days) | Wnt/Fgf-induced Cdx2 expression ([2]; Noggin 50 ng/ml with Wnt3a 500 ng/ml and Fgf4 500 ng/ml, 2-4 day treatment after DE induction) | Retinoic acid (RA)-induced posteriorization, Cdx2 expression ([2]; addition of Noggin to Retinoic acid treatment) | hindgut and foregut fate (Cdx2, Sox2 expression) ([2]; repression of BMP signaling with noggin) | regional intestinal fate (intestinal organoids)
ActivinA: nodal-related TGFβ molecule (R&D systems) used to differentiate PSCs into definitive endoderm (protein, UniProt P08476 311-426, looked up) Inhibin beta A chain: GLECDGKVNICCKKQFFVSFKDIGWNDWIIAPSGYHANYCEGECPSHIAGTSGSSLSFHSTVINHYRMRGHSPFANLKSCCVPTKLRPMSMLYYDDGQNIIKKDIQNMIVEECGCS | 80-90% | up to 90% | competent to develop into both foregut (Albumin+ and Pdx1+) and hindgut (Cdx2) lineages | intrinsically anterior in character and not as competent to form posterior lineages |  |  |  | 
Noggin: the BMP antagonist Noggin (R&D Systems) (protein, UniProt Q13253 28-232, looked up) Noggin: QHYLHIRPAPSDNLPLVDLIEHPDPIFDPKEKDLNETLLRSLLGGHYDPGFMATSPPEDRPGGGGGAAGGAEDLAELDQLLRQRPSGAMPSEIKGLEFSEGLAQGKKQRLSKKLRRKLQMWLWSQTFCPVLYAWNDLGSRFWPRYVKVGSCFSKRSCSVPEGMVCKPSKSVHLTVLRWRCQRRGGQRCGWIPIQYPIISECKCSC |  |  |  |  | completely abolishes the Wnt/Fgf-induced Cdx2 expression | potently inhibits Cdx2 expression | suppresses hindgut fate and promotes foregut fate | promotes a proximal intestinal fate (duodenum/jejunum)
